Test results from PMC8265312.

Columns and labels:
[1] = molecular target: endogenous huGAPDH on the surface of dying A549 cells (human (endogenous in A549)) (UniProt P04406); assay: competition of binding to cells, cell-bound PspA detected by immunoblot
[2] = molecular target: recombinant human GAPDH (human) (UniProt P04406); assay: SPR

In the case of “recombinant His-tagged PspA (pneumococcal surface protein A) composed of the αHD and PRD (domain or fragment)”, the percent reduction of cell-bound PspA by GAPDH70 [1] is reported as 50% and the Kd [2] is reported as 2950 nM.
